According to US20080213296A1:
pKd: −log10 of the molar value. Where “and” joins values, the source holds several entries; their conditions need not be identical. Equal entries are not always repeated.

Legend:
[1] = target: HIV 89.6 gp140 envelope protein (cleaved gp140 preparation, oligomers) (HIV 89.6 (Clade B) primary isolate); assay: SPR, D1 peptide over directly immobilized 89.6 gp140, no CD4
[2] = target: HIV 89.6 gp140 envelope protein (cleaved gp140 preparation, oligomers) (HIV 89.6 (Clade B) primary isolate); assay: SPR, D1 peptide over 89.6 gp140 captured on immobilized CD4 (CD4-gp140 complex)
[3] = target: HIV 89.6 gp140 envelope protein (cleaved gp140 preparation, oligomers) (HIV 89.6 (Clade B) primary isolate); assay: SPR, sCD4-ligated gp140
[4] = target: recombinant HIV ADA gp41 protein (HIV ADA); assay: SPR, 89.6 gp120 pre-incubated with 0.3 mg/ml CD4, over immobilized ADA gp41
[5] = target: recombinant HIV ADA gp41 protein (HIV ADA); assay: SPR, 89.6 gp120 (100 µg/ml) over immobilized ADA gp41
[6] = target: soluble CD4 (UniProt P01730); assay: SPR
[7] = target: soluble CD4 (UniProt P01730); assay: SPR, gp120 over immobilized CD4
[8] = target: HIV 89.6 gp120 envelope protein (soluble) (HIV 89.6 (Clade B) primary isolate); assay: SPR capture assay, mAb pre-incubated with 89.6 gp120, captured on A32; competitor DP178 50 µg/ml
[9] = target: scrambled sequence DP178 peptide; assay: SPR SA-chip assay, A32 over biotinylated scrDP178
[10] = target: HIV 89.6 gp120 envelope protein (soluble) (HIV 89.6 (Clade B) primary isolate); assay: SPR capture assay, gp120 over immobilized A32
[11] = target: HIV 89.6 gp120 envelope protein (soluble) (HIV 89.6 (Clade B) primary isolate); assay: SPR SA-chip assay, 89.6 gp120 alone over biotinylated scrDP178

| Substance | t1/2 of binding [6] | pKd [7] | koff [7] | % blocking of DP178 binding [8] | further results |
| --- | --- | --- | --- | --- | --- |
| CCR5-D1 peptide (CCR5 N-terminal extracellular domain peptide) | – | – | – | – | pKd [1]: 6.00; koff [1]: 0.01 s⁻¹; pKd [2]: 6.55; koff [2]: 0.00256 s⁻¹; kon [2]: 9000 M⁻¹ s⁻¹; pKd [3]: 3.55 |
| HIV 89.6 gp120 envelope protein (soluble) | 105 min | 7.64 | 0.00011 s⁻¹ | – | RU bound [4]: 850 RU; RU bound [5]: 300 RU |
| HIV DH12 gp120 (soluble, monomeric) | 25 min | 7.02 | 0.00047 s⁻¹ | – | – |
| HIV JRFL gp120 (soluble, monomeric) | 14 min | 6.84 | 0.00088 s⁻¹ | – | – |
| mAb 48d (human, coreceptor binding site of gp120) (antibody) | – | – | – | 80% | – |
| mab 17b (human, CCR5/coreceptor binding site of gp120) (antibody) | – | – | – | 80% | – |
| mab 19b (human anti-gp120 V3 loop) (antibody) | – | – | – | 68% | – |
| mab A32 (human anti-gp120, conformational determinant) (antibody) | – | – | – | – | RU (background signal) [9]: 10 RU and 20 RU; RU bound [10]: 2000 RU |
| scrambled sequence DP178 peptide | – | – | – | – | RU (constitutive binding) [11]: 50 RU |
